Results published in patent US20030224453A1, “Structural models for cytoplasmic domains of transmembrane receptors” (priority 1998, published 2003).
Each block holds one molecule with its values, some of them ahead of it.

Tests used:
[1] = biological target: T1, integrin β3 cytoplasmic domain (Homo sapiens, UniProt P05106); experiment: Immunochemical ELISA: αIIb peptides added to fixed saturating β3 peptide, competition for anti-model protein antibody binding to coated αIIbβ3 (EC50 determination); conditions: result in words
T1 sequence (P05106 742-788 limits assumed): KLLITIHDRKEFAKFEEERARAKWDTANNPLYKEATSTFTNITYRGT
Excerpt: Antibodies raised against a mimic of the present invention were used in an immunochemical assay to identify compounds that bind to the 3 cytoplasmic domain and induce a conformation change. In this assay, the binding of the αIIb and β3 cytoplasmic tails was first analyzed. […] Furthermore, as shown in this Table, point mutations or deletions that disrupted this heptapeptide sequence in the αIIb cytoplasmic domain also disrupted interaction with β3.
αIIbβ3 was purified by gel filtration in accordance with procedures described by Du et al. (Cell 65:409-416 (1991)) with omission of the heparin and Con A affinity chromatography steps. The final product was greater than 95% homogenous as judged by SDS PAGE. In the enzyme-linked immunosorbent assay (ELISA) the αIIbβ3 was used at a concentration of 5 μg/ml in a coating buffer containing 0.1 M NaHCO3 and 0.05% NaN3. Fifty ul/well was used to coat IMMULON II microtiter wells at 4° C. overnight. After removal of the coating solution, 150 Al blocking buffer (coating buffer containing 5% bovine serum albumin) was added. After an additional one hour incubation at 4° C., the blocking buffer was removed and the plates were washed three times with wash buffer (0.01 M Tris, 0.15 M NaCl, 0.01% thimerisol, 0.05% Tween 20, pH 8.0). Twenty-five microliters of the competitor was added to each well followed by 25 μl of a dilution of the anti-model protein antibody. Following mixing, the plate was covered for one hour at 37° C. and washed four times with wash buffer. To quantify bound antibody, 50 μl of horseradish peroxidase-conjugated goat anti-rabbit IgG (Biorad) was diluted to a concentration of 1/1000 in wash buffer containing 1 mg/ml bovine serum albumin. These plates were then incubated at 37° C. for 1.5 hours. After four washes, bound antibody was assayed by measuring peroxidase activity with O-phenylenediamine as a substrate and quantifying reaction product by its optical density at 490 nm. Data were expressed as B/B0 where B=A490 in the presence of competitor and B0=A490 in its absence. In some experiments, varying concentrations of αIIb peptides were added to a fixed, saturating, quantity of β3 peptide (20-50 nM). Competition was again expressed as B/BO, however, B0 was the A490 in the presence of the β3 peptide and no added αIIb peptide. EC50 was defined as the dose of αIIb resulting in B/B0=0.5.

[2] = test system: platelet αIIbβ3; experiment: ELISA: inhibition by competitor of anti-mimic antibody reactivity with native platelet αIIbβ3; assay type: binding, human; conditions: antibody raised against FIG. 2 heterodimeric mimic; result in words
Procedure: Antibodies against these heteromeric complexes of the present invention that recognize combinatorial epitopes of the cytoplasmic domains of the complex can be produced in accordance with well known techniques. For example, antibodies were prepared against the heterodimeric complex of FIG. 2. […] Thus, this antibody recognized combinatorial epitopes in the cytoplasmic domain of the native receptor that were mimicked in the model protein.
Antibodies to the model protein depicted in FIG. 2 were raised in 2.5 kg New Zealand white rabbits. One hundred microliters of a water solution containing 1 mg/ml of the model protein was emulsified in 1 ml incomplete Freund's adjuvant and administered subcutaneously to each New Zealand white rabbit. Two additional injections at 2-week intervals were followed by bleeding (approximately 50 mls) at monthly intervals until the rabbits were sacrificed. Blood was permitted to clot at room temperature, and the serum was recovered by centrifugation. Serum was heat inactivated at 56° C. for 30 minutes and stored at −20° C. A pre-immune serum, obtained prior to immunization, was used as a control.
αIIbβ3 was purified by gel filtration in accordance with procedures described by Du et al. (Cell 65:409-416 (1991)) with omission of the heparin and Con A affinity chromatography steps. […] To quantify bound antibody, 50 μl of horseradish peroxidase-conjugated goat anti-rabbit IgG (Biorad) was diluted to a concentration of 1/1000 in wash buffer containing 1 mg/ml bovine serum albumin. […] After four washes, bound antibody was assayed by measuring peroxidase activity with O-phenylenediamine as a substrate and quantifying reaction product by its optical density at 490 nm. Data were expressed as B/B0 where B=A490 in the presence of competitor and B0=A490 in its absence. In some experiments, varying concentrations of αIIb peptides were added to a fixed, saturating, quantity of β3 peptide (20-50 nM). Competition was again expressed as B/BO, however, B0 was the A490 in the presence of the β3 peptide and no added αIIb peptide. […]

[3] = biological target: T2, talin (Homo sapiens, UniProt Q9Y490); experiment: Affinity chromatography of cell lysates on cytoplasmic domain mimics, talin detected; assay type: binding; parameters: endogenous in cells; host or cells: human platelets (also Jurkat, HT1080, mouse C2C12 myotubes); conditions: NHS-biotin-labeled human platelet lysates; result in words
Excerpt: To study possible influences of the structural changes induced by the Gly insertions, protein models were produced having the β1A cytoplasmic domain with one, two and three additional Gly residues inserted after the heptad-repeat motif (G2-, G3-, G4-β1A) and compared with the G1-β1A construct. As an additional control, a variant of the G4-β1A peptide was produced with a Tyr to Ala substitution in the membrane-proximal NPXY-motif (G4-β1A-Y788A) (FIG. 1). This mutation interferes with focal adhesion targeting and activation of integrins. The purified proteins were bound via their N=terminal His-Tag to a Ni^2+−resin and used in affinity chromatography experiments with lysates of NHS-biotin-labeled human platelets. Marked changes in the pattern of protein binding were observed as a consequence of the Gly insertions. Polypeptides migrating at 45, 56, 58, 140 and 240 kDa bound only to the mimics with Gly insertions. […] Using monoclonal antibodies, the 240 kDa and 45 kDa proteins were identified as filamin and actin, respectively. […] Talin bound to the G1- and G4-β1A construct but not to the Y788A-G4β1A construct. Thus, the structural changes in the model induced by the insertion of glycines into the coiled-coil motif and the integrin cytoplasmic domain sequence alter interactions of these proteins with cellular components. Alterations of the β1A tail that block cytoskeletal interactions, such as the Y788 mutation and β1B- and β1C-splice variants also abrogate binding to talin and filamin. Consequently, the observed in vitro interactions are likely to be biologically relevant.
Human platelets were obtained by centrifugation of freshly drawn blood samples at 1000 rpm for 20 minutes and sedimentation of the resulting platelet-rich plasma at 2600 rpm for 15 minutes. They were washed twice with 0.12 M NaCl, 0.0129 M trisodium citrate, 0.03 M glucose, pH 6.5, and once in Hepes-Saline (3.8 mM Hepes, 137 mM NaCl, 2.7 mM KCl, 5.6 mM D-Glucose, 3.3 mM Na2HPO4, pH 7.3-7.4). […]

[4] = biological target: T3, Full-length β3 peptide (β3 cytoplasmic tail) (UniProt P05106 742-788, limits assumed); experiment: competitive ELISA with β3 peptide and anti-model protein antibody on coated αIIbβ3
T3 construct: domain: cytoplasmic domain; also called wild-type β3
T3 peptide (looked up): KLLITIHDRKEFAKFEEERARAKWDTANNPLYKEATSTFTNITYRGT

[5] = biological target: filamin (ABP-280) (Homo sapiens, UniProt P21333); experiment: Binding of resin-bound cytoplasmic domain model proteins to purified filamin; parameters: Human uterus filamin (ABP-280) was prepared as a 1.5 mg/ml solution; from tissue; host or cells: human uterus; conditions: result in words
Procedure: (§1) Purified recombinant cytoplasmic domain proteins (500 μg) were dissolved in a mixture of 5 ml 20 mM Pipes, 50 mM NaCl, pH 6.8 and 1 ml 0.1 M sodium acetate, pH 3.5 and bound overnight to 80 μl of Ni^2+ saturated His-bind resin (Novagen). […] Resins were washed twice with 20 mM Pipes, 50 mM NaCl, pH 6.8, and stored at 4° C. with 0.1% sodium azide as suspensions with one volume of this buffer. Fifty microliters of such a suspension were added to 4.5 ml of cell lysates which had been diluted tenfold with buffer A containing 0.05% TRITON X-100, 3 mM MgCl2 and protease-inhibitors. After incubation overnight at 4° C., resins were washed five times with this buffer and finally heated in 50 μl of reducing sample buffer for SDS PAGE. Samples were separated on 4-20% SDS polyacrylamide gels (NOVEX) and either stained with Coomassie or transferred to Immobilon P membranes (Amersham Corp., Arlington Hts, Ill.). Membranes were blocked with TBS, 5% nonfat-mild powder and stained with streptavidin-peroxidase (VECTASTAIN) or specific antibodies. Bound peroxidase was detected with an enhanced chemiluminescence kit (Amersham).
Human uterus filamin (ABP-280) was prepared as a 1.5 mg/ml solution in 0.6 M KCl, 0.5 mM ATP, 0.5 mM DTT, 10 mM imidazole, pH 7.5. For binding assays performed as described in Example 5, this solution was diluted 1/12 with buffer A, 0.05% TRITON X-100, 3 mM MgCl2, 2 mg/ml BSA, protease-inhibitors (see Example 5), omitting the 50 mM NaCl (see Example 5), and resins with bound model proteins were added. Washing was performed in this buffer without BSA and with additional 50 mM KCl.
Talin was purified from human platelets in accordance with well known procedures with an additional purification step using chromatography on phosphocellulose and stored at 1 mg/ml in 10 mM NaCl, 50% glycerol. This solution was diluted to either 87 or 17 μg/ml talin with buffer A, 0.05% TRITON X-100, 3 mM MgCl2, 2 mg/ml BSA and protease inhibitors (see Example 5, including 0.1 mM E-64) and processed as indicated in the binding assays with cell lysates. […]

[6] = biological target: T2, talin; experiment: Binding of resin-bound cytoplasmic domain model proteins to purified talin; parameters: Talin was purified from human platelets in accordance with well known procedures; from tissue; host or cells: human platelets; conditions: result in words
Procedure: as §1
Talin was purified from human platelets in accordance with well known procedures with an additional purification step using chromatography on phosphocellulose and stored at 1 mg/ml in 10 mM NaCl, 50% glycerol. […]

T2 sequence (Q9Y490 whole entry, the tested form may be a part): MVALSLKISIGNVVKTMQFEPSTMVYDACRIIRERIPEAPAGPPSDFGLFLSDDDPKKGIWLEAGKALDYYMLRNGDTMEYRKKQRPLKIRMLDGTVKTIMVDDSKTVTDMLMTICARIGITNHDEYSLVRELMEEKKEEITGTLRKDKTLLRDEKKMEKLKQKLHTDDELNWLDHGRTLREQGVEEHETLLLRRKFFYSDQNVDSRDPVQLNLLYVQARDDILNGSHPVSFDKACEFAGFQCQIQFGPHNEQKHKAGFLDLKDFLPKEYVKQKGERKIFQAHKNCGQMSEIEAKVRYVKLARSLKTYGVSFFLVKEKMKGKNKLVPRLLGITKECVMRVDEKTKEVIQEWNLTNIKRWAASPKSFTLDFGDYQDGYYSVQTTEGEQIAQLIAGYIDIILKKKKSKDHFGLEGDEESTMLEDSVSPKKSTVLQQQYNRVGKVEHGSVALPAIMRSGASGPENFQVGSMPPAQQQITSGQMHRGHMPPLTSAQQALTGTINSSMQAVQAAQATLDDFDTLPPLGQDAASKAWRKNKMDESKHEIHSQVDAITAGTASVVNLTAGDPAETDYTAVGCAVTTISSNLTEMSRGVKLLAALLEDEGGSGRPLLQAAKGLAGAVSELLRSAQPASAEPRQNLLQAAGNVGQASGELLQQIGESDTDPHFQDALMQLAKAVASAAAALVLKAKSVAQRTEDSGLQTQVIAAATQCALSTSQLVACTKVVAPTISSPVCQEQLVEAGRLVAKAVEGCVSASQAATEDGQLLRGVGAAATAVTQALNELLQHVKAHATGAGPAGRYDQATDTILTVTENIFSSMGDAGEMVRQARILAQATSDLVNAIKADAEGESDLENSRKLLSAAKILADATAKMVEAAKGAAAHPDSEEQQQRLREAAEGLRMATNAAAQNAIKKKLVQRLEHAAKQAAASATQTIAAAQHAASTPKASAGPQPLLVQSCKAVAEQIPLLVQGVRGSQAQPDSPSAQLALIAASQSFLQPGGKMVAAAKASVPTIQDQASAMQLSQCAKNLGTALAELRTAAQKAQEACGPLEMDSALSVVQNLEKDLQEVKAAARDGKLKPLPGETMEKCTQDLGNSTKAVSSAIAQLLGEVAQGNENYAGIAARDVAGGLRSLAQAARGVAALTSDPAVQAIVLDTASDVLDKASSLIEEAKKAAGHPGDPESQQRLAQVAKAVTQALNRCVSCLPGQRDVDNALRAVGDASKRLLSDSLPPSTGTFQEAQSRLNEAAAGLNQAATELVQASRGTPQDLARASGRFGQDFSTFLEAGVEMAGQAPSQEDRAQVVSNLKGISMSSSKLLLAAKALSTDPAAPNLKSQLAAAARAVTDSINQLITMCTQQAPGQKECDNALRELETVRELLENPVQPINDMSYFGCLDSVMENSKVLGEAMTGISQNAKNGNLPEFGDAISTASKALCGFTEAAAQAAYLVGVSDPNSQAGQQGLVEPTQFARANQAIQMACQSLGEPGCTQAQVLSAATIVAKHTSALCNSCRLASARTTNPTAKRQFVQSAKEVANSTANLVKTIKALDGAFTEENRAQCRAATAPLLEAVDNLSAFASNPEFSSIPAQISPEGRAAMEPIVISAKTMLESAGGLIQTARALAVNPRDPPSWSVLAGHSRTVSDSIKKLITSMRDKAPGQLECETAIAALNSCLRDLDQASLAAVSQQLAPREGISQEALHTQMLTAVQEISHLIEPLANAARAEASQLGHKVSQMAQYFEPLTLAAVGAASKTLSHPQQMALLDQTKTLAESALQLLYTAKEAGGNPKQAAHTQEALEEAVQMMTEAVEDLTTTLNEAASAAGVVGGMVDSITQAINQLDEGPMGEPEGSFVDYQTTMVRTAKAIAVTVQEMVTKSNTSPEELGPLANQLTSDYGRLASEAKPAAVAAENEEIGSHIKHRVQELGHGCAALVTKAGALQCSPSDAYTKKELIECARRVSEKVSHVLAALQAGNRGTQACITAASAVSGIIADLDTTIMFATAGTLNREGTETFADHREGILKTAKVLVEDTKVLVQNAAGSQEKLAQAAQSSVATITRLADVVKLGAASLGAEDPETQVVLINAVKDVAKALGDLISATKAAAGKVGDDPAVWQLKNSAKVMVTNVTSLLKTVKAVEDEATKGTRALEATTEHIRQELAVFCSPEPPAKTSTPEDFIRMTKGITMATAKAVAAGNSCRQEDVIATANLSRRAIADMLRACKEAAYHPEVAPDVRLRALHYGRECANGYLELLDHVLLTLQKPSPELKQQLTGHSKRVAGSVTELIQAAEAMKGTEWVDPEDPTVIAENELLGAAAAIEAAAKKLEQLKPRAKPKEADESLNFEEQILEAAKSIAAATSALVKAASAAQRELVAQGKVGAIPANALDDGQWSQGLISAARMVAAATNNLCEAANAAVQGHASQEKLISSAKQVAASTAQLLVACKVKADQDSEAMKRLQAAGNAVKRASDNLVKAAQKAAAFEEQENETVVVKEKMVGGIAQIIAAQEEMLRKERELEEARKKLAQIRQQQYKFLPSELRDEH
Sequence of filamin (ABP-280) (P21333 whole entry, the tested form may be a part): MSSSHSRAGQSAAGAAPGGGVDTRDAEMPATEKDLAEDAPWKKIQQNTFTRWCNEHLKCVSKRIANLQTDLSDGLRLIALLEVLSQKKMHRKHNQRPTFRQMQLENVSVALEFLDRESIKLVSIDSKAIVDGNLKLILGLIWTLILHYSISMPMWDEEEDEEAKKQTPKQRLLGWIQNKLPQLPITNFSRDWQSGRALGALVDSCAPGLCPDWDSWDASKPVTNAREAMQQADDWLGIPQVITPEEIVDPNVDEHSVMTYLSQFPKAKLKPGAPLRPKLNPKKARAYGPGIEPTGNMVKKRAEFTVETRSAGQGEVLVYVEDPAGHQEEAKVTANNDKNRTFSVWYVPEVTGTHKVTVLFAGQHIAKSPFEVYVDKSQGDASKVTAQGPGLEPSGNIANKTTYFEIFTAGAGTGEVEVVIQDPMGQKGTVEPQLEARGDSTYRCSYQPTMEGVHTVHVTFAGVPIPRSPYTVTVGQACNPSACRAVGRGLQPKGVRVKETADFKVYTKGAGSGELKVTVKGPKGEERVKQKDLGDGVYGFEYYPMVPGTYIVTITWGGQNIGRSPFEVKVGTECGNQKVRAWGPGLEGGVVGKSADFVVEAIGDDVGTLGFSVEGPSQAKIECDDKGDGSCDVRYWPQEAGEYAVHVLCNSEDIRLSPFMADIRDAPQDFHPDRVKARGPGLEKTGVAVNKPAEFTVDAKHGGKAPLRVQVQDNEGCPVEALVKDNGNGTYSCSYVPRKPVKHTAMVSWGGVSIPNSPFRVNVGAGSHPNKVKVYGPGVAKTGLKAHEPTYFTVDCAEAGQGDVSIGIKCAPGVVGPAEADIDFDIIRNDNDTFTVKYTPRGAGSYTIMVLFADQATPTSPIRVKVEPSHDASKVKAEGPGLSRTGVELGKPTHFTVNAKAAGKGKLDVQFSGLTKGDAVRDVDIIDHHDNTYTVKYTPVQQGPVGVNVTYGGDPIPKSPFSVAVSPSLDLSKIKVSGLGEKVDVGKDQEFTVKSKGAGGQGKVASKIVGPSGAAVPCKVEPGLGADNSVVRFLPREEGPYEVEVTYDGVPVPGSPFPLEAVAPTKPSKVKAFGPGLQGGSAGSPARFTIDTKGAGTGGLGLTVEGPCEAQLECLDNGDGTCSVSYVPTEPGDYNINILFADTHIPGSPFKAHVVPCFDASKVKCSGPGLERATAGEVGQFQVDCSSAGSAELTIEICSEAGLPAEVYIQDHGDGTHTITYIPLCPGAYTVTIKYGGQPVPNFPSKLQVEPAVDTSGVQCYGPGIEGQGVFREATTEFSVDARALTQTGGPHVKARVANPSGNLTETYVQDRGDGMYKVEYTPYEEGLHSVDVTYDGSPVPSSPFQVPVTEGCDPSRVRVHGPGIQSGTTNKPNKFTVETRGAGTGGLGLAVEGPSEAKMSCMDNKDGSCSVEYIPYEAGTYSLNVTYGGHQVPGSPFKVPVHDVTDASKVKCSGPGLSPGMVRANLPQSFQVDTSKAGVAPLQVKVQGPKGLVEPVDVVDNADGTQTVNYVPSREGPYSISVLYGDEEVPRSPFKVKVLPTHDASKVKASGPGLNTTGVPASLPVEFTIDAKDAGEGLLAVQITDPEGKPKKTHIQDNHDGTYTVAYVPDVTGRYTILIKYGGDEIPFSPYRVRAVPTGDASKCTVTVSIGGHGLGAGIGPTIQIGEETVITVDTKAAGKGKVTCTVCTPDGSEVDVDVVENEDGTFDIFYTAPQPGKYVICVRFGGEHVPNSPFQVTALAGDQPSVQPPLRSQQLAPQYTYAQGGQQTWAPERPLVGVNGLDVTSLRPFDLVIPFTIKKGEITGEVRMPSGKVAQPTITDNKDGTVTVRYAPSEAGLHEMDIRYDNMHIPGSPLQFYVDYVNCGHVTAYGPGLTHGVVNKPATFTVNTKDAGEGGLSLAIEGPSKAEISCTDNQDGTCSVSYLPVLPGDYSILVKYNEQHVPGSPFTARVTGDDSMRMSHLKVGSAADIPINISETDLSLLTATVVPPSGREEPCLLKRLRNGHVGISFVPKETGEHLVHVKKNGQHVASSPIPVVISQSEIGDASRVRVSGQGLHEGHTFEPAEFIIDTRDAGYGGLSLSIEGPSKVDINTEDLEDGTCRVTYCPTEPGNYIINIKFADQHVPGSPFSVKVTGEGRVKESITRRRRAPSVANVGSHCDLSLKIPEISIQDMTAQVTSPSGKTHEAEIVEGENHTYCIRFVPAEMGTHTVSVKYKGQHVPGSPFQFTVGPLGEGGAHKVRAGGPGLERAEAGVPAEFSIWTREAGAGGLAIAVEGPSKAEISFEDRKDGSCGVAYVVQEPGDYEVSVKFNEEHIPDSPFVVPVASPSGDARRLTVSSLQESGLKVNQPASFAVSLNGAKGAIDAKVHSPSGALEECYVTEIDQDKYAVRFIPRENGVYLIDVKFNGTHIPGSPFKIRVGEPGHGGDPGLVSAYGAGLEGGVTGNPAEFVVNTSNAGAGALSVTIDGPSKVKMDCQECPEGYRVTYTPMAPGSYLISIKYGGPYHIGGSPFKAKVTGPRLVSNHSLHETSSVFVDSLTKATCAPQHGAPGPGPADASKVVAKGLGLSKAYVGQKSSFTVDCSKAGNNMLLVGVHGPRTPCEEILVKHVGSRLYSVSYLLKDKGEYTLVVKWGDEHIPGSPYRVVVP

Molecule: full-length αIIb peptide: full-length linear peptide of the αIIb cytoplasmic domain (KVGFFKRNRPPLEEDDEEGE)
interaction with β3 cytoplasmic tail (induces conformation change seen by antibody) [1]: apparent affinity of the interaction was high | inhibition of antibody reactivity with platelet αIIbβ3 [2]: not inhibited

Molecule: full-length β3 peptide: full-length linear peptide of the β3 cytoplasmic domain (KLLITIHDRKEFAKFEEERARAKWDTANNPLYKEATSTFTNITYRGT)
inhibition of antibody reactivity with platelet αIIbβ3 [2]: only partially inhibited

Molecule: β3 (Y747A) mutant: mutant of the β3 cytoplasmic domain, Y747A (KLLITIHDRKEFAKFEEERARAKWDTANNPLAKEATSTFTNITYRGT)
inhibition of antibody reactivity with platelet αIIbβ3 [2]: completely inhibited

talin binding from cell lysates [3]: bound
B1: G4-β1A: β1A construct with three additional glycines between heptad repeats and cytoplasmic domain (protein)
chain: GSSHHHHHHSSGLVPRGSHMKLEALEGRLDALEGKLEALEGKLDALEGGGGKLLMIIHDRREFAKFEKEKMNAKWDTGENPIYKSAVTTVVNPKYEGK

binding result [4]: no binding
Molecule: KLGFFKRSLPYGTAMEKAQLKPPATSDA (peptide, UniProt P08648 1022-1049, looked up, domain: cytoplasmic domain) [Cytoplasmic domain of integrin α5]

binding of purified filamin, comparison between constructs [5]: functionally reduced | binding of purified talin compared to G4-β1A [6]: functionally reduced
B2: G4-β1B: G4 model protein with β1B splice variant cytoplasmic domain (protein)
chain: GSSHHHHHHSSGLVPRGSHMKLEALEGRLDALEGKLEALEGKLDALEGGGGKLLMIIHDRREFAKFEKEKMNAKWDTVSYKTSKKQSGL

binding result [4]: no binding
Molecule: KAGFFKRQYKSILQEENRRDSWSYINSKSNDD (peptide, UniProt P13612 1001-1032, looked up, domain: cytoplasmic domain) [Cytoplasmic domain of integrin α4]

talin binding from cell lysates [3]: bound
B3: G1-β1A: His-tag, four heptad repeats, one glycine, β1A integrin cytoplasmic domain (protein)
chain: GSSHHHHHHSSGLVPRGSHMCGKLEALEGRLDALEGKLEALEGKLDALEGKLLMIIHDRREFAKFEKEKMNAKWDTGENPIYKSAVTTVVNPKYEGK
